Experiment: soluble fraction after stress (log2 fold change); higher = more stays soluble; pooled small domains, quantitative proteomics
Conditions: stress: pH 4
How it was run: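 With high-throughput quantitative proteomics, pooled custom libraries of small protein domains were measured after pH 4 stress. Each domain's soluble amount after the stress gives a fold change taken as aggregation propensity. Higher log2 values mean more of the domain stayed soluble.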

Sequence | soluble fraction (log2)
HMDINIETLNYYVGKAKIPLSELRISVKNIDLFLSGEKQPTFNQLSSIAKKLNIPTGLLLLDESIEV | -1.34
HMDIPGITAVKPQAAFYMFPKIDVKKFNIVNDEKFALDLLQDKKILIVQGSGFNWKQPDHFRVV | 0.115
HMDIRVAHVDDDMSFGEAFAQARSQVGPGGVFEWHGKLYGTYTAEEWASMSPAERSQYQQAVFN | 0.105
HMDIVLPFSFAKRHGVVLSERQGETELLYLKGLPVRVLAEARRVLRQEFTVRQVEQAVFDKALSESYQN | -0.591
HMDIYLDDINRKILHLLSQGVKTKSLRDYIDLSMSAIEKRKKHLKDLFLIEDGKDETLLSEARKKGF | -0.398
HMDKAGWLPARVRLADYPALKQLAWQVQGVDELTPREALGIYERNWRHLDEAALLPRERNLIDALRLAFG | -0.16
HMDKEQVTFIFRDIDIALRSLDYPIKDIKNTLNIIKSEFSNSKSTELNEQKINFENILKEAISILENND | -0.969
HMDKFKDVGARIREARKVQKLSQADLAERLQISTSHMSDIENGKKNIGLDIFMRLTEALQVSADWLL | -0.567
HMDKFTYVVKKEDEQYQIKDILRHNFTFSSRLRKKLKQNNSIFLNGAETVGWATPKEGDIISVRLP | 0.219
HMDKKEFGKRLKNLRIRNKMSQQAMADSLGYTSRSTINKIEEGINEMSYDKIVRLMELYGLSRPDLGLEPI | -0.157
HMDKKTMFNEALAKLVSYATAHDNLITMEDVKSFFNGLIDDDSQYKLIYDYLSINKIEIKGFT | -0.704
HMDKLEKRILDYLLQKSAIDGSTILKISHREMAMDLGTAREVVTRILKKLETGGFVRQGENYLEILK | -0.456
HMDKPIFTLRENEVLYWASMGKTYAEIATIVGISVRTVKFHMGNVVSKLGVSNARQAIRLGVELDLITPMQ | -1.76
HMDKSFYETFEKIGHGDFDKGLNHVWQHANDGNGTATLLLSKLFLEFGDLDNFEKYLNISAEQSNPVAMKI | -0.191
HMDKSNEVLMNHYRKQEINQAKKRLEEEKMSIIQVLQLTNKEVITTDELLEALYISKEQLLDEIINTTQ | -1.02
HMDKSPVLQLNRDVPAGQQISADDFRTVEIGADGAFRSVPSSDLNAMVGSYAKVRLIAGTLLAREALQSG | -0.0884
HMDKSRPVLRVGDSGDWVSKLQTALLEFGYRVAVDGVFGEHTKSAVVHFQNGRRLIADGVVGNLTWDALL | -0.968
HMDKWFPVSSDHKVQVGDYLRTADGLVKVEATHNEYGTFYGKIITAIHDDVVKGETYEYRIDDVQVLA | -1.77
HMDLAPLQTVDIAINYAKAAELAAILKSSEGGILSDRGGVTVDERTNTLLIRDTLESIDEARKTI | -0.4
HMDLATQHAAKVNAAILAARRFEREGSWRQVAAKYSEALQLMPGNEQASRGYQQAMAMLDERD | 0.41
HMDLDSGVAVLRTLMSQHNLQTDDFQNEIGGKSMVSMILNGTRKLSKNHIQALSGRFNLSPALFF | -0.494
HMDLEELSNKMNNVFESLSSDLRDIIIMSDIEGLSYEEISHKINIPIGTVRSRLHRARDLMVRVIKEN | -0.713
HMDLGEQIIEKLRAAGGFLAITDKSPAEEIYELFATSKKNYKKAVGGLYKKGLLVIEDDGIRLTPAGR | ≥ 0.43

Sequence | soluble fraction (log2)
HMDLHERISSVLLGTGKSNDELAQILGVNKNTISAYKNKHGDLKGIVLEGIVKHFDINPVWLLTGSGTR | 0.0745
HMDLKSLEFAIVENVQRHDLNPLEEAQGYKRLIDEFSYDQDKVSKFIGKSRSYITNSLRLLNLPLEVLEF | -0.541
HMDLKTNSQLINELEKKIKRPFDREIKNYLNKNLSTDRMISNNEIDKIILFYSGNNEIPNIEKISLILNDN | 0.0193
HMDLPATVPNLEGLTEVTARNKLTVAGLSLGEVKEVESDKEKGTVVGQSIAYGKRVTKGTKVDIEISSGK | 0.318
HMDLPDTLSMPNALKVLEDNGFPTSKAKLYKMTSQEQIPFMKYGNKLVFSRKALIEWAHKQLV | 0.301
HMDLPREKRIEIGLTYIYGIGLKTSQKILAATGIDPNTRVKDLDETTVSKLREYIDHNYRVEGELRS | -0.217
HMDLSLQTFNELKTELTNNKITIDQFSEKINEFDITSDIFEISRELFLDDTLSLEDYLVVIENVLIN | -0.782
HMDLSQTVQAKALARVNVREGAGTHFKSLGKLKKGELLPVFRVGNSWASIWWKGRVAYVHTDYLRFESA | -0.153
HMDLTKLFDHDSEYGKSYVFGKITDEMIARAEQTLGYRMPASYIELLKVQNGGMISDELDESWLTTIYGIG | -0.932
HMDMAYEVVKAFHDLQDYKDVKGGKVYHHYDVGDTYPRQGLDPAPDETRIEELLSSGNAQGVPLIAEV | -0.219
HMDMNVQNYRGLSLDRAKKLISDLGLKYEVVGTGDSVVKQVPSSGSRMSKENGRIILYTENVEDA | 0.278
HMDMPLIGTAIRGWGIISPAQQETLIKMSILTVEDLAAINDEGIKRIGMGGLDLKNKAKAWLLQLK | -0.00985
HMDMRLADLIGRDGITITFMRPSGKVEIDGEIYDAVSDVGLIDKNEEVEVIKFENAQLVVTKKNKN | 0.108
HMDMSVDQFNQGIRGSELYQQFIHGRGLQQPDGKTREWTDADRNAWRRTLEASGVRIPDGMKIDNAGNLNE | -0.052
HMDNEIIEEEKITTLMITHNMRDAIKYGNRLIMLNEGRVIFDISGEEKKNLTVQELLEKFEK | 0.22
HMDNEIMYPIQINGKVRAELFVSTERAMDKQYVLEQAKANEKIQGYLEGNRLVKEIFVPKRIVNLVIAP | 0.184
HMDNIEIGNRIREIRIKKNISVFELAYRTKTSQSHIYQIEGGSQNMSIELLFKIADTLETDPNTILGV | -2.25
HMDNIPAHIKAKIINYVNRNYPGAIIKDIERKSNGRYEAEIVYNNREYDLLFDAQGNFISASLDDK | -0.32
HMDNNFIQSLYPIAIGISKNQLDPWDLINGWVEYYLKNKEKYINHPNLKAVAVLKMKGLLIDHFRKS | -1.96
HMDNPKGNLQEAVQAKGNEPIEYRVLNVDGPDHAREFKIAVFIGGKRKGTGVGNSKKKAEEIAAEKAFKRM | -0.189
HMDNPVPVIITDQNFQPQLWKNVGVPTDTLFHELSAANQRKLENLMKTMIQTPLTDNGKISGYAFYSK | 0.152
HMDNREKLRQEFLENLKELQEQNDIPQQEIDRVILDYDGVAEFLEDEGALKRYGGQLVDMTAYRAGAIPS | -2
HMDNRLFKMLYYLLDKERATAPELAAEFEVSTRTIYRDVEALSSAGIPIYAEPGRNGGIYLLQD | -1.1

Sequence | soluble fraction (log2)
HMDNTSNVEKTLRFIRQRGKVSRKEVETLLGSSKFPAISALNELLAENKIVKTGSGPAVRYSVS | 0.018
HMDNVINDGMQVRFTGNVDINGTPLKIYDRIYTAEGISDDTVVLMLGNDVYARVYLSDVVPAD | -0.275
HMDNWLSGLAVEADRMILTQPGEVFDRLSRAFEATLIRRALASTGGRRIEAAHLLGIGRNTITRKIQDLGL | -1.45
HMDPDARQDAEVWLLDFLSAGPRTAQEIFTAARVEGHTRVTVKRAKATAGIQSVKQDFDGPWVWVLPGSG | -0.932
HMDPFAYEVKVTDLAAGSSEIRTVYTEQGSFNIPSGMSGNLKIQVRSASMYDEVEPSDWYTIGEEDIN | -0.461
HMDPLASLTPREREVLSLMAQGLSNLAVAERLVVSAGAVEKHISSIFTKLDLAPSEHEHRRVLAVLRYVAG | -2.09
HMDPPISNDARNAINAKLMKFSELHPNEMKKLVEAYKKEFKVSKISPITLARQGEFLSHAISKIDDT | -0.0331
HMDPQDGTVKFFNGARGFGFITPDGGGADVFVHVSAVERAGLTQLVEGQRVNFQTLPDTKGKGPKAVNLKV | -0.531
HMDPSDQLYTVPPSAEGLRLDLFLVQHVPHMTRALATQLTGAGQVRVNGRRAKKGDRLPSGAQVRLEQAP | -0.138
HMDPSHGESRENLDIMRIIDETHLEYPSWGYRKMTDHLRANHGYTINRKRVRRLMRLMDIIALFPG | -0.908
HMDPSVTGLLTRLGISPQTAQELAGQYEEPYILEKIAIVEAHPEYVKNAAGFVITALQEDWKD | -1.37
HMDPTHDMHFLVKDQVTGQPLPNMPYRLQLDNGQTLTGRTDALGMTEKISGHSPHIASIEVPY | 0.025
HMDPVILDINSVKALLGISNKADFMAELSRLVVTEGDKKMIIPLAKEVGIDNVAVYKRNEIENISNYK | -0.297
HMDQAEDVLSIPVDALMRGNQVYIKDDTVTEQQGPIPAGFKAVEVETGLISDSYVEIKSGLSEGDTVYVAE | -0.661
HMDQESFGYFHVKYADVKQVADLVQKLNIPAVTWADERTRRLVALGSPATLQRISQVLNMVDL | -0.476
HMDQHPYGEDSFRGDNPPAGFDIKGNEDSMKFHEPSSPWYGRTIAEVWFRSAAAAEAAGFVNAV | -0.0254
HMDQINNDLRKLIEFLPEDQKTVLKMRHFQEMSFKEIAKATGVSINTALGRMRYALINLRKLIEENEI | -0.903
HMDQPLIEPLSERELEVLSLIAAGYSNAEIAERLVIAVGTVKRHINNLYGKLGAGSRTQALAIAREIGLM | -0.661
HMDQTKYDAIITEAKKLTAEGQYKESEEKLATIPVSDLGKPHYSIVKETVEKLNNQNNEGLKRQEEVAVE | -0.0626
HMDQVLHQLVEVLRRSEIRISPAETLDAFKVLRNVGIDNKSLLREALALTLAKSIHEKIIFYETFDEFFT | -1.08
HMDRADIDAVDAEWVRATMERLGLRAKHIESHTGISKSTLSILLNGHRPLTRWHKIAFYYLFKHIEF | -1.82
HMDRDQNVEEGQRSLKSEMGRFGLLIANMDDLAERVNYGNAEDMYAAIGAGDLRLMQVVHAAEEMLG | -0.61

Reference: the domain aggregation screens of Martell et al. (2025)
